Results from patent US20230038638A1, “COMPLEMENT FACTOR I-RELATED COMPOSITIONS AND METHODS” (published 2023).

How the values were obtained:
[1] = target: soluble human C3b (human) (UniProt P01024)
human C4b (human) = target: T1, human C4b (human) (UniProt P0C0L5)
T1 sequence: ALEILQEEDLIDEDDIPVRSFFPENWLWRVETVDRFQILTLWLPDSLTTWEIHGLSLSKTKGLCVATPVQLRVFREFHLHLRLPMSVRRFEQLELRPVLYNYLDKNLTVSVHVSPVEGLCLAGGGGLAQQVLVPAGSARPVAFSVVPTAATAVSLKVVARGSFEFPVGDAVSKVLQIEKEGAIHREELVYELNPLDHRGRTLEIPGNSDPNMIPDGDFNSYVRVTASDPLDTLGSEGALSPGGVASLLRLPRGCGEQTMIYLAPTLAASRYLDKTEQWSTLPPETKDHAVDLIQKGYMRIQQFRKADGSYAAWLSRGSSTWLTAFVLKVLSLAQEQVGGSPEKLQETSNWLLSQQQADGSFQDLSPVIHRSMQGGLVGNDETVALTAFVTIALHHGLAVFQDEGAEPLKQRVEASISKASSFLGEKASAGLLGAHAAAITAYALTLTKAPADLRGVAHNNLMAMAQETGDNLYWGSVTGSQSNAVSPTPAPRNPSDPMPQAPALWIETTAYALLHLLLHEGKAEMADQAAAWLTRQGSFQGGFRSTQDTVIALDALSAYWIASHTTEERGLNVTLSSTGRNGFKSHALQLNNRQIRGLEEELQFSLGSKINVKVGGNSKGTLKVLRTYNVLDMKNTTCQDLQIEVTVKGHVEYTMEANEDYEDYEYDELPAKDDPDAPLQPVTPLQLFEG

Row | Substance | iC3b Screen Ref Fold (fold vs CFI-HSA wild type) [1] | C4b Screen Ref Fold (fold vs CFI-HSA wild type) (human C4b (human))
1 | CFI-HSA N531G; P535A; R557K (enzyme) | 1.65 | 4.13
2 | CFI-HSA N531G; P535A; ΔC-term (Δ558-PFISQYNV (SEQ ID NO: 14)-565) (enzyme) | 0.24 | 0.96
3 | CFI-HSA P535G; E530Y (enzyme) | 0.22 | 0.11
4 | CFI-HSA P538G (enzyme) | -0.01 | 0.07
5 | CFI-HSA Q69G (enzyme) | 1.17 | 0.14
6 | CFI-HSA R327G (enzyme) | 0.5 | 0.26
7 | CFI-HSA R365A (enzyme) | 0.5 | 0.56
8 | CFI-HSA R365D (enzyme) | 0.03 | 0.02
9 | CFI-HSA R365E (enzyme) | 0.02 | -0.06
10 | CFI-HSA R365F (enzyme) | 0.64 | 0.23
11 | CFI-HSA R365G (enzyme) | 0.16 | 0.35
12 | CFI-HSA R365H (enzyme) | 0.43 | 0.31
13 | CFI-HSA R365I (enzyme) | 0.3 | 1.16
14 | CFI-HSA R365K (enzyme) | 1.01 | 0.39
15 | CFI-HSA R365L (enzyme) | 0.16 | 0.6
16 | CFI-HSA R365M (enzyme) | 0.43 | 0.13
17 | CFI-HSA R365N (enzyme) | 0.04 | 0.1
18 | CFI-HSA R365P (enzyme) | 0.07 | 0.18
19 | CFI-HSA R365Q (enzyme) | 0.64 | 0.18
20 | CFI-HSA R365S (enzyme) | 0.6 | 0.18

Row | Substance | iC3b Screen Ref Fold (fold vs CFI-HSA wild type) [1] | C4b Screen Ref Fold (fold vs CFI-HSA wild type) (human C4b (human))
21 | CFI-HSA R365T (enzyme) | 0.56 | 0.96
22 | CFI-HSA R365V (enzyme) | 0.43 | 1.25
23 | CFI-HSA R365W (enzyme) | 0.89 | 0.24
24 | CFI-HSA R365Y (enzyme) | 0.74 | 0.63
25 | CFI-HSA R371G (enzyme) | 0.17 | 0.15
26 | CFI-HSA R456G (enzyme) | 0.03 | 0.04
27 | CFI-HSA R484G (enzyme) | 0.77 | 0.64
28 | CFI-HSA R557D (enzyme) | -0.01 | 0.5
29 | CFI-HSA R557E (enzyme) | -0.02 | 1.15
30 | CFI-HSA R557F (enzyme) | 0.12 | 2.13
31 | CFI-HSA R557G (enzyme) | 0.04 | 1.61
32 | CFI-HSA R557H (enzyme) | 0.11 | 2.44
33 | CFI-HSA R557I (enzyme) | 0.16 | 3.27
34 | CFI-HSA R557L (enzyme) | 0.15 | 2.27
35 | CFI-HSA R557M (enzyme) | 0.16 | 2.48
36 | CFI-HSA R557N (enzyme) | 0.05 | 1.87
37 | CFI-HSA R557P (enzyme) | 0.04 | 3
38 | CFI-HSA R557Q (enzyme) | 0.08 | 2.12
39 | CFI-HSA R557S (enzyme) | 0.1 | 1.11
40 | CFI-HSA R557T (enzyme) | 0.09 | 1.63

Row | Substance | iC3b Screen Ref Fold (fold vs CFI-HSA wild type) [1] | C4b Screen Ref Fold (fold vs CFI-HSA wild type) (human C4b (human))
41 | CFI-HSA R557V (enzyme) | 0.21 | 2.23
42 | CFI-HSA R557W (enzyme) | 0.12 | 2.36
43 | CFI-HSA R557Y (enzyme) | 0.21 | 3.23
44 | CFI-HSA S343G (enzyme) | 1.32 | 0.92
45 | CFI-HSA S527G (enzyme) | 0.16 | 0.09
46 | CFI-HSA T377G; E457G (enzyme) | 2.31 | 4.38
47 | CFI-HSA T377G; E457G; E461Q (enzyme) | 2.27 | 3.75
48 | CFI-HSA T377G; E457G; E461Q; N531G (enzyme) | 1.57 | 4.73
49 | CFI-HSA T377G; E461Q (enzyme) | 2.82 | 3.17
50 | CFI-HSA T377G; N531G (enzyme) | 2.34 | 4.53
51 | CFI-HSA V526G (enzyme) | -0.01 | 0.03
52 | CFI-HSA V540G (enzyme) | 0.03 | 0.01
53 | CFI-HSA W528G (enzyme) | -0.05 | 0.01
54 | CFI-HSA Y408L; D425R; E530Y (enzyme) | 1.95 | 1.05
55 | CFI-HSA Y408L; E457G; D425R; E530Y (enzyme) | 1.74 | 1.68
56 | CFI-HSA Y408L; E457G; E461Q; R462K; N531G; GGSSGG (SEQ ID NO: 6); CR1 (ccp15-17) (from UniProt P17927) (enzyme) | 0.18 | 1.84
57 | CFI-HSA Y408L; E457G; E461Q; R462K; N531G; R557A (enzyme) | 1.29 | 3.22
58 | CFI-HSA Y408L; E457G; E461Q; R462K; N531G; R557K (enzyme) | 1.14 | 4.01
59 | CFI-HSA Y408L; E457G; E461Q; R462K; N531G; ΔC-term (Δ558-PFISQYNV (SEQ ID NO: 14)-565) (enzyme) | 0.24 | 1.67
